Assay results: PMC7528686 (Molecules and Cells, 2020)

Target: the molecule itself
Test: SEC

B1: CafA (residues 75-287), β-class carbonic anhydrase of Aspergillus fumigatus (enzyme, UniProt A4UTP0 75-287, looked up)
chain: DSLSDKFSAALAKNKEWAAKCSQEHPELLPTLAVGQHPEILWIGCSDSRCPETTILGLLPGDVFTHRNIANVIHPADLSSGAVIEFAVRHLRVKHVVICGHTKCGGVAAALGNKGLGILDPWLIPLRQLREQHLAELQSLSRDEAVVRLAELNVKEGLKALTQKSVVLEAMQERGLQVHGLIYDVGSGFLRQLDAAEPEEALKARLTSFKTDA
- stoichiometry N: 4
